Assay results published in patent US20210292386A1.
Read-outs that look alike come from different tables or passages of the source.

Tests used:
Test in all cases: cell-based or functional assay
[1] = target: T1, high-affinity IL2 receptor (IL2Rαβγ) of the mouse T cell line CTLL-2 (mouse) (UniProt P01590)
T1 sequence (looked up) 1: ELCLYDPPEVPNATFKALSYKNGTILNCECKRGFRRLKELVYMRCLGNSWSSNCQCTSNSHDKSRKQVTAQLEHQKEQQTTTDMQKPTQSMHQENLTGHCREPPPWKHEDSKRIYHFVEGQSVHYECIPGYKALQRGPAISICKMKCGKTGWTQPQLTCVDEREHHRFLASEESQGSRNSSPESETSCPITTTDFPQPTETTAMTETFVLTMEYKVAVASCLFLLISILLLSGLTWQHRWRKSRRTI
T1 sequence (looked up) 2: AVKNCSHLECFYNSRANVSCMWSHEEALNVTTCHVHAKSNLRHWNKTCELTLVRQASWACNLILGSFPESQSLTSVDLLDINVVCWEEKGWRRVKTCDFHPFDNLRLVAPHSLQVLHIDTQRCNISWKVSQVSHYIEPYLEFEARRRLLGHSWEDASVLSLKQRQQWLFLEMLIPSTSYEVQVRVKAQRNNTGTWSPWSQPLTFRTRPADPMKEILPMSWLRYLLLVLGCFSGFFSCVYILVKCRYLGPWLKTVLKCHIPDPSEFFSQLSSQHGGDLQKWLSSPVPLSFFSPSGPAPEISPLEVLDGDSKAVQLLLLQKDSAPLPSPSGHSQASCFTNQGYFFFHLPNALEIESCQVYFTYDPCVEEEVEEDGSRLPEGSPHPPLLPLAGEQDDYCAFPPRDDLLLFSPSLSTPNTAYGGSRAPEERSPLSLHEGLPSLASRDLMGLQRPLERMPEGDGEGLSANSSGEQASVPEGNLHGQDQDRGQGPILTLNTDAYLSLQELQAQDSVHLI
T1 sequence (looked up) 3: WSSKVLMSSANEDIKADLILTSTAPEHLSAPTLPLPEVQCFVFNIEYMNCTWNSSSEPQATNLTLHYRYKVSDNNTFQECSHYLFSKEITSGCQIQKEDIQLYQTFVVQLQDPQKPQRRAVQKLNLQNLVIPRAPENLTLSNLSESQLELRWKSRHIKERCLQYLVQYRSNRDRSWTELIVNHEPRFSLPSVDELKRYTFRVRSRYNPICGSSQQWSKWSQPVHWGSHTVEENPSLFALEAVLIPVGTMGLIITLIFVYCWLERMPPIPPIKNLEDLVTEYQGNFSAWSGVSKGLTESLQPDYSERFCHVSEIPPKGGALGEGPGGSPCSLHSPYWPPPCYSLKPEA

[2] = target: high-affinity IL2 receptor (IL2Rαβγ), human, on CD4+CD25+FoxP3+ regulatory T cells (human) (UniProt P01589); parameters: unit not given beside the values
[3] = target: intermediate-affinity IL2 receptor (IL2Rβγ), human (human) (UniProt P14784); parameters: unit not given beside the values
[4] = target: T1, high-affinity IL2 receptor (IL2Rαβγ) of the mouse T cell line CTLL-2 (mouse); remark: listed apart in the source
[5] = target: intermediate-affinity IL2 receptor (IL2Rβγ), human (human) (UniProt P14784)

Sequence of UniProt P14784 (P14784 27-551, chain 1 of 2): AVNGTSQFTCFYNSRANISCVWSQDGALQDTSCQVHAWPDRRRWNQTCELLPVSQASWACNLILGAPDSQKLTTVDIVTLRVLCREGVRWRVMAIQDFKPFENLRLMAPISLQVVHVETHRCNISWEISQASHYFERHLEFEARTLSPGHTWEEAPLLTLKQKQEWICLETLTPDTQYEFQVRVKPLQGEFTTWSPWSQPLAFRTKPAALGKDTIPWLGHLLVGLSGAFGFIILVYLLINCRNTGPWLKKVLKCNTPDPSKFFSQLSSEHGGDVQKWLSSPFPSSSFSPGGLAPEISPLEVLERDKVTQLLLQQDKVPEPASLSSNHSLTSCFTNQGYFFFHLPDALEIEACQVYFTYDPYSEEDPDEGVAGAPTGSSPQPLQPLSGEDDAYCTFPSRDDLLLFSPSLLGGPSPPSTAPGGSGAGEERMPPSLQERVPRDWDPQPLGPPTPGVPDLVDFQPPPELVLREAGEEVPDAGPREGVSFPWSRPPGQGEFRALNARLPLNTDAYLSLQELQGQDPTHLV
Sequence of UniProt P14784 (P31785 23-369, chain 2 of 2, further chain): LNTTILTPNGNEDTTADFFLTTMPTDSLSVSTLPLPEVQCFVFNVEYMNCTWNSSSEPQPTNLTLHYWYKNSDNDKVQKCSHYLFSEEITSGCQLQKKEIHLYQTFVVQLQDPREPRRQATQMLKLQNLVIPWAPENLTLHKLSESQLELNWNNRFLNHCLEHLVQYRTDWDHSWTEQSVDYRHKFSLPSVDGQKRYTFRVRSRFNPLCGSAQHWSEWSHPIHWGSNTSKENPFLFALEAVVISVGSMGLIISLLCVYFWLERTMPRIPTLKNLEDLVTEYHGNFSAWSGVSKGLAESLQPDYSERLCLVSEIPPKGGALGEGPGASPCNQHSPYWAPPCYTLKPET
Sequence of UniProt P01589 (P01589 22-272, chain 1 of 3): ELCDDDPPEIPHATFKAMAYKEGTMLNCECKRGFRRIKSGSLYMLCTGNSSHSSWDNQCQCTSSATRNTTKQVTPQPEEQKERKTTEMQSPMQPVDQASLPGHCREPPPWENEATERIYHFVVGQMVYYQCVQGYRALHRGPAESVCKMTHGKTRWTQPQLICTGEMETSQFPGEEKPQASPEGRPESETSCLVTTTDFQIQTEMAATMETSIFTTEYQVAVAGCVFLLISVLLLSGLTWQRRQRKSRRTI
Sequence of UniProt P01589 (P14784 27-551, chain 2 of 3, further chain): as the sequence (P14784 27-551, chain 1 of 2) above
Sequence of UniProt P01589 (P31785 23-369, chain 3 of 3, further chain): as the sequence (P31785 23-369, chain 2 of 2, further chain) above

Work on hAlb-hIL2 (ligand) yielded an EC50 of CTLL-2 proliferation (%-supernatant) [1] of 0.115, an EC50 of STAT5 phosphorylation, CD4+CD25+FoxP3+ Treg (%-supernatant) [2] of 0.111 and an EC50 of STAT5 phosphorylation, CD4+CD25- T helper cells (%-supernatant) [3] of 4.36. The EC50 of STAT5 phosphorylation, CD8+ cytotoxic T cells (%-supernatant) [3] was 6.84, the EC50 of CTLL-2 proliferation (%-supernatant) [4] was 0.214 and the EC50 of TF-1 IL2Rβγ proliferation (%-supernatant) [5] was 2.35.
